Reference: patent publication US20030087866

Biological target: T1, purified recombinant R2 protein, P11157
T1 chain: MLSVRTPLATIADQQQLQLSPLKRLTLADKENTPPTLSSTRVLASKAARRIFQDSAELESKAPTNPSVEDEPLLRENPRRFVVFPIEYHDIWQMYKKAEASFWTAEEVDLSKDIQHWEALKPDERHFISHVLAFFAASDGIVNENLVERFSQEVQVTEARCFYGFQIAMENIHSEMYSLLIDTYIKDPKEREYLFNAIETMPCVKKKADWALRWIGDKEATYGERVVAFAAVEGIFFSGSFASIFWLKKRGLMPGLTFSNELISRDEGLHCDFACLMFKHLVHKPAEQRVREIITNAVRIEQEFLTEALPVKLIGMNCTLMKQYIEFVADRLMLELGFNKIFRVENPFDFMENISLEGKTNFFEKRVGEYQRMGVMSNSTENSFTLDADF

B1: human Myc epitope-tagged mouse ribonucleotide reductase R1 protein (protein)
chain: EQKLISEEDLMHVIKRDGRQERVMFDKITSRIQKLCYGLNMDFVDPAQITMKVIQGLYSGVTTVELDTLAAETAATLTTKHPDYAILAARIAVSNLHKETKKVFSDVMEDLYNYINPHNGRHSPMVASSTLDIVMANKDRLNSAIIYDRDFSYNYFGFKTLERSYLLKINGKVAERPQHMLMRVSVGIHKEDIDAAIETYNLLSEKWFTHASPTLFNAGTNRPQLSSCFLLSMKDDSIEGIYDTLKQCALISKSAGGIGVAVSCIRATGSYIAGTNGNSNGLVPMLRVYNNTARYVDQGGNKRPGAFAIYLEPWHLDIFEFLDLKKNTGKEEQRARDLFFALWIPDLFMKRVETNQDWSLMCPNECPGLDEVWGEEFEKLYESYEKQGRVRKVVKAQQLWYAIIESQTETGTPYMLYKDSCNRKSNQQNLGTIKCSNLCTEIVEYTSKDEVAVCNLASLALNMYVTPEHTYDFEKLAEVTKVIVRNLNKIIDINYYPIPEAHLSNKRHRPIGIGVQGLADAFILMRYPFESPEAQLLNKQIFETIYYGALEASCELAKEYGPYETYEGSPVSKGILQYDMWNVAPTDLWDWKPLKEKIAKYGIRNSLLIAPMPTASTAQILGNNESIEPYTSNIYTRRVLSGEFQIVNPHLLKDLTERGLWNEEMKNQIIACNGSIQSIPEIPDDLKQLYKTVWEISQKTVLKMAAERGAFIDQSQSLNIHIAEPNYGKLTSMHFYGWKQGLKTGMYYLRTRPAANPIQFTLNKEKLKDKEKALKEEEEKERNTAAMVCSLENREECLMCGS
- ribonucleotide reductase activity of the 9E10-immunoprecipitated R1 combined with purified recombinant R2: enzyme activity of 15.4±2.0 pmoles/mg/hr was detected when C1/mR1 cells (Table 1) were used as a source of recombinant R1
